assay: yeast display, Sf9 membrane polyspecificity reagent, FACS + sequencing; frameworks hold sequencing errors
Procedure, shortened: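 After 36–48 hours of galactose induction, yeast (Saccharomyces cerevisiae BJ5465) displaying a synthetic nanobody library were stained at 4 °C for 1 hour with 10% biotinylated, detergent-solubilized Sf9 membrane reagent. Streptavidin microbeads enriched the stained cells before FACS sorting into low and high (top ~1%) gates on anti-HA and streptavidin fluorescence. Each clone's polyreactivity label reflects its gate of origin.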

Sequence | polyreactivity (PSR sort gate)
QVQLVESGGGLVKAGGSLRLSCAASGRTFGYNAMGWYRQAPGKEREFVAAISWSGGRTYYADSVKGRFTISRDNAKNTVYLQMNSLKPEDTAVYYCAAAAPHLSAKMDYWGQGTQVTVSS | low polyreactivity
QVQLVESGGGLVQAGGSLRLICAASGSTLYRNAMGWYRQARGKERELVAAISSSGGTTFYADSVKGRFTISRDNAKNTVYLQMNSLKPEDTAVYYCNRTARKLLTVHSSVVGLDYWGQGSQVTVSS | low polyreactivity
QVQLVESGGGLVQAGGSLRLSCAASGSSFYVNAMGWYRQAPGKEREFVAAITWNSGSTYYADSVKGRFTISRDNEKNTVYLQMNSLKPEDTAVYYCAAVLSGRVYGYDYWGQGTQVTVSS | low polyreactivity
KVQHVESGGGLVQAGGSLRLSSAASGRISWSYAMGWYRQAPGKESELVAAITSGGTTNYAYSVKGRFTISRDNAKYTVYLQMNSLKPEDTAVYYCARDSYQLGLIRDPLEYDFWGKGTQVTVSS | low polyreactivity
QVQLVESGGGLLQAGGSLRLTCAASGRIFGRYAMGWYRQAPGKERELVAAISYSGGSTRYADSVKGRFTISRDNSKNTVYLQMNSLKPEDTAVYYCAAARRFSTHEYWGQGTQVTVSS | high polyreactivity
QVQLVESGGGLVQAGGSLRLRCAASGIIFTGYALGWYRQAPGKESELVAAISRSGGGTYYADSVKARFTISRDNAKNTVYLQINSLKPEDTAVYYCNRLRIAASYWQAYDYWGQGTQVTLSS | high polyreactivity
QVQLVESGGGLVQAGGSLRLSCAASGFTFEENDMGWYRQAPGKETELVAAINWSGGNTYYADSVKGRFTISRDNAKNTVYLQMNSLKPEDTAVYYCAADSPRYYYWVGPYYGYDYWGQGTQVTVSS | high polyreactivity
QVQLVESGGGLVQAGGSLRLSCSASGRTFYGNAMGWYRQAPGKERELVAAISWSGGSTYYADSVKGRFPISRDNAKNTVYLQMISLKPEYTAVYYCNADYFAWDLMYYWGQGTQVTVSS | low polyreactivity
QVQLVESGGGLVQAGGSLRLSCAASGSTFYFNAMGWYRQAPGKERELVAGIYSGGSTYYADSVKGRFTISRDNAKNTVYLQMNSLKTEDTAVYYCAATWLVERPFSYTEYGYWGQGTQVTVSS | low polyreactivity
QVQLVESGGGLVQAGGSLRLSCAASGFTFSDNAMVWYRQAPGKERELVAAISEGSGITYYADSVKGRFTISRDNAKNTVTLQMNSLKPEDNAVYYCAADWLSKYDYWGQGTQVTVSS | low polyreactivity
QVQLGESGGGLVQAGGSLRLSCADSGFTFASNAMGWYRQAPAKERELVAAISTSGGSTYYADSVKGRFTISRDNAKNTVYLQMNSLKPEDTAVYYFAVAVNGVSRIKYYYWGQGTQVTVSS | high polyreactivity
QVQLVESGGGLVQAGGSLRLSCAASGSIFAAYTMGWYRQAPGKERELVAAISVSTVSTYYADSVKGRFTISRDNAKNTVYIQMNSLKPEDTAVYYCNADATDSYPEKDEHDSWGQGTQVTVSS | low polyreactivity
QVQLVESGGGLVQAGGSLRLSCSASGSTFGYYAMGWYRQAPGKERELVAAITRSGGSTFYADSVKGRFTISRDNAKNTVYLQMNSLKPEDTAVYYCAATYWPYRPGYYYWGQGTQVTVSS | high polyreactivity
QVQLVESGGGLVQAGGSLRLSCAASGLIFRYYAMGWYRQATGKEREFVAAITWRTGSTYYADSVKGRFTISRDNAKNTVYLQMNSLKPEDTAVYYCAARGGRRYDYWGQGTQVTVSS | high polyreactivity
QVQLVESGGGLVQAGGSLRLSSAASGRTFSSYAMGWYRQAPGKERELVAAINWSGASTYYADSVKGRFTISRDNAKNTVYLQMNSLKPEDTAVYYCAKSLYVGKYWQIRSSVDYWGQGTQVTVSS | low polyreactivity
QVQLVESGGGLVQAGGSLRLSCAASGSIFRAYAMGWSRQAPGKERELVAAISIGGRTYYADSVKGRFTISRDNAKNTVYLQMNSLKPEDTAVYYCAAVRSYVKGGMYYWGQGTQVTVSS | low polyreactivity
QVQLVESGGGLVQAGGSLRLSCAASGFIFSYNAMGWYRQAPGKERELVASISRRSGITYYADSVKGRFTISRDNAKNTVYLQMNSLKPEDTAVYYCAVTQNSKSTKIRPDQGDYWGLGTQVTVSS | high polyreactivity
QVQLVESGGGLVQAGGSLRLSCAASGLIFHQYAMGWYRQAPGKERELVAAITRSGTRTYYADSVKGRFTISRDNAKNTVYLQMNSLKPEDTAVYYCAAGDTQGVSMDYWGQGTQVNVSS | high polyreactivity
QVQLVESGGGLVQAGGSLRLSCAASGRIFNRYTMGWYRQAPGKERELGAAISKSGGSTYYADSVKGRFTISRDNAKNTVYVQMNSLKPEDTAVYDCAAPPRLYRWHGGDYWGQGTQVTVSS | high polyreactivity
QVQLVESGGGLVQAGGSLRLSCAASGRIFIRNTMVWYRQAPGKERELVADISWRGGSTYYADSVKGRFTISRDNAKNTVYLEMNSLKPEDTAVYYSAAVVRSPAYDYWGQGTQVTVSS | high polyreactivity
QVQLVESGGGLVQAGGSLRLSCAASGRTFGSYVMGWYRQAPGKERELVAAISWSSGITYYADSVKGRFTISRDNAKNTVYLQMNSLKPEDTAVYYCAARIWDSRAYYYWGQGTQVTVSS | high polyreactivity

From the nanobody polyreactivity screen of Harvey et al. (2022)
